This note sets out measurements from publication PMC2699145 (The Journal of Cell Biology, 2009).

The chains are these.
B1: GST-RIL (reversion-induced LIM) (natural protein, human, UniProt P50479 1-330, looked up)
chain: MPHSVTLRGPSPWGFRLVGGRDFSAPLTISRVHAGSKAALAALCPGDLIQAINGESTELMTHLEAQNRIKGCHDHLTLSVSRPEGRSWPSAPDDSKAQAHRIHIDPEIQDGSPTTSRRPSGTGTGPEDGRPSLGSPYGQPPRFPVPHNGSSEATLPAQMSTLHVSPPPSADPARGLPRSRDCRVDLGSEVYRMLREPAEPVAAEPKQSGSFRYLQGMLEAGEGGDWPGPGGPRNLKPTASKLGAPLSGLQGLPECTRCGHGIVGTIVKARDKLYHPECFMCSDCGLNLKQRGYFFLDERLYCESHAKARVKPPEGYDVVAVYPNAKVELV
B2: MBP-tagged RIL (natural protein, human, UniProt P50479 1-330, looked up)
chain: B1 chain
B3: GST fusion protein containing the kinase domain of Src (residues 249-536) (domain or fragment, UniProt P12931 249-536, looked up)
chain: PTSKPQTQGLAKDAWEIPRESLRLEVKLGQGCFGEVWMGTWNGTTRVAIKTLKPGTMSPEAFLQEAQVMKKLRHEKLVQLYAVVSEEPIYIVTEYMSKGSLLDFLKGETGKYLRLPQLVDMAAQIASGMAYVERMNYVHRDLRAANILVGENLVCKVADFGLARLIEDNEYTARQGAKFPIKWTAPEAALYGRFTIKSDVWSFGILLTELTTKGRVPYPGMVNREVLDQVERGYRMPCPPECPESLHDLMCQCWRKEPEERPTFEYLQAFLEDYFTSTEPQYQPGENL

What all share (assay): pull-down
Experiment [1] addresses maltose-binding protein (MBP)-tagged Src protein (UniProt P12931 1-536).
The target of experiment [2] is pY419 Src (MBP-Src phosphorylated at Y419) (UniProt P12931 1-536, phosphotyrosine at 419).
Experiment [3] concerns the target GST-tagged Src (UniProt P12931 1-536).
The target in experiment [4] is B2.

On to B1, for which the binding result in experiment [1] and in experiment [2] was “binds” in each case.
Consider B2, for which the binding result in experiment [3] is “binds”.
As to B3, in experiment [4], the binding result is given as “binds”.
